Assay results: US20240181094A1, “[161Tb]-BASED RADIOPEPTIDES” (priority 2021, published 2024)
Starred links: 1 amine or outer side, 2 acyl side, 3 side chain; linkers in the order of their positions; H or OH if unused. Positions of bridges follow the written chain, without caps; N, C: chain ends. Non-standard residues stand in square brackets, D forms with d. Residues, ends and D or L forms follow the SMILES beside them. *: point of attachment. DOTA = O=C(O)CN1CCN(CC(=O)O)CCN(CC(=O)*)CCN(CC(=O)O)CC1; X1 = NC(=O)Nc1ccc(CC(N[*:1])C(=O)[*:2])cc1; Phe(4-Cl) = N[CH](Cc1ccc(Cl)cc1)C(=O)O

Columns and labels:
[1] = test system: AR42J tumor-bearing mice; test: Biodistribution studies: comparison of 161Tb- and 177Lu-labeled peptides; conditions: 1 nmol/mouse, 2 h p.i.
[2] = in vivo; conditions: female, mouse, iv, 1 nmol/mouse, total radioactivity
[3] = test system: AR42J tumor-bearing mice; conditions: female, CD-1 Foxn-1/nu athymic nude, mouse, in vivo, iv, 1 nmol/mouse, 24 h

Work on `CC(O)C1NC(=O)C(CCCCN)NC(=O)C(Cc2ccc(NC(N)=O)cc2)NC(=O)C(Cc2ccc(O)cc2)NC(=O)C(NC(=O)C(Cc2ccc(Cl)cc2)NC(=O)CN2CCN(CC(=O)O)CCN(CC(=O)O)CCN(CC(=O)O)CC2)CSSCC(C(=O)NC(Cc2ccc(O)cc2)C(N)=O)NC1=O` (stereo not shown) [metal not drawn] ({DOTA}-[Phe(4-Cl)]CY[X1]KTCY-NH2; disulfide 2-7; configuration not given here) yielded a Femur uptake [1] of 0.20 ± 0.05 % IA/g, a Lung uptake [1] of 1.0 ± 0.2 % IA/g and a tissue uptake at 2 h ([2]; CD-1 Foxn-1/nu athymic nude) of no more than 0.1 %ID/g. It also gave a tissue uptake at 24 h ([2]; CD-1 Foxn-1/nu athymic nude) of no more than 0.1 %ID/g, a tissue uptake at 2 h ([2]; athymic nude CD-1 Foxn-1/nu) of no more than 0.1 %ID/g and a tissue uptake at 24 h ([2]; athymic nude CD-1 Foxn-1/nu) of no more than 0.1 %ID/g. It also gave a Muscle uptake [3] of no more than 0.10 % IA/g.
